{
  "source": "paper PMC11406251",
  "key": {"[1]": {"molecular_target": "HCMV gB ectodomain base construct (gB Base) (human cytomegalovirus, Towne strain) (UniProt P13201)", "assay": "cryo-EM structure"}, "[2]": {"molecular_target": "HCMV gB ectodomain base construct (gB Base) (human cytomegalovirus, Towne strain) (UniProt P13201)", "assay": "SEC; Superose 6 Increase 10/300 GL; 2 mM Tris pH 8.0, 200 mM NaCl, 0.02% sodium azide; LMW peak ~14 mL (trimers), HMW peak ~12 mL (oligomers of trimers)"}},
  "data": [
    {"substance": "HCMV gB ectodomain base construct (gB Base) (from UniProt P13201 23-704) (domain or fragment)", "values": [
      {"measurement": "stoichiometry N", "setting": "[1]", "value": 3},
      {"measurement": "stoichiometry N", "setting": "[2]", "value": 3}
    ]}
  ]
}
